{"source": "patent US11021533", "binders": {"B1": {"name": "ZIKV-88 (antibody, V domains shown)", "VH": "QVQLLESGGGVVQPGRSLRLSCVASGLTFSTSAMHWVRQAPGKGLEWVAVISYDGSYKFYADSVRDQFTISRDNSKTTLYLQMDGLTPEDTAVYYCARGYNDDSSGSYWYFDLWGRGTLVTVSS", "VL": "QSVLTQPPSVSAAPGQKVTMSCSGSSSNIGSNFVSWYQQLPGTAPKVLIFDNNQRPSGIPDRFSGSKSGTSATLAITGLQPGDEAVYHCGTWDSSLTFAVFGGGTKLTVL"}, "B2": {"name": "ZIKV-117 (antibody, V domains shown)", "VH": "QVQLVESGGGVVRPGGSLRLSCAASGFTFKNYGIHWVRQAPGKGPEWVAFVRYDGNNKYYADSVKGRFTISRDNAKNTLSLQMNSLRVEDTAVYFCARDPETFGGFDYWGQGTLVTVSS", "VL": "ETVMTQSPATLSVSPGERGTLSCRASESVSSNLAWYQQKPGKAPRLLIYGASTRATGIPDRFSGSGSGTEFTLTISSLQSEDFAVYYCQQYYYSPRTFGQGTKVEVK"}}, "key": {"[1]": {"biological_target": "ZIKV strain H/PF/2013 (French Polynesia, 2013) virus (Zika virus, strain H/PF/2013)", "test": "cell-based or functional assay"}, "[2]": {"biological_target": "all ZIKV strains tested (MR 766, Dakar 41519, Malaysia P6740, H/PF/2013, Brazil Paraiba 2015)", "test": "cell-based or functional assay"}}, "data": [{"binder": "B1", "values": [{"measurement": "FRNT50 (focus reduction neutralization test on Vero cells)", "setting": "[1]", "value": 420, "unit": "ng/mL"}]}, {"binder": "B2", "values": [{"measurement": "FRNT50 (focus reduction neutralization test on Vero cells)", "setting": "[2]", "value": "5 to 25", "unit": "ng/mL"}]}]}
